Assay results as given in article PMC11947285 (Nature Communications, 2025).

Target: the molecule itself
Experiment: cryo-EM structure

B1: human XPR1 (Xenotropic and polytropic retrovirus receptor 1) (natural protein, UniProt Q9UBH6-1 1-696, looked up)
chain: MKFAEHLSAHITPEWRKQYIQYEAFKDMLYSAQDQAPSVEVTDEDTVKRYFAKFEEKFFQTCEKELAKINTFYSEKLAEAQRRFATLQNELQSSLDAQKESTGVTTLRQRRKPVFHLSHEERVQHRNIKDLKLAFSEFYLSLILLQNYQNLNFTGFRKILKKHDKILETSRGADWRVAHVEVAPFYTCKKINQLISETEAVVTNELEDGDRQKAMKRLRVPPLGAAQPAPAWTTFRVGLFCGIFIVLNITLVLAAVFKLETDRSIWPLIRIYRGGFLLIEFLFLLGINTYGWRQAGVNHVLIFELNPRSNLSHQHLFEIAGFLGILWCLSLLACFFAPISVIPTYVYPLALYGFMVFFLINPTKTFYYKSRFWLLKLLFRVFTAPFHKVGFADFWLADQLNSLSVILMDLEYMICFYSLELKWDESKGLLPNNSEESGICHKYTYGVRAIVQCIPAWLRFIQCLRRYRDTKRAFPHLVNAGKYSTTFFMVTFAALYSTHKERGHSDTMVFFYLWIVFYIISSCYTLIWDLKMDWGLFDKNAGENTFLREEIVYPQKAYYYCAIIEDVILRFAWTIQISITSTTLLPHSGDIIATVFAPLEVFRRFVWNFFRLENEHLNNCGEFRAVRDISVAPLNADDQTLLEQMMDQDDGVRNRQKNRSWKYNQSISLRRPRLASQSKARDTKVLIEDTDDEANT
- stoichiometry N: 2
